Measurements reported in US20120201826A1.

Molecular target: recombinant human RANTES (huRANTES, Peprotech) (human) (UniProt P13501)
Test: cell-based or functional assay

Sequence of recombinant human RANTES (huRANTES, Peprotech) (human) (P13501 24-91): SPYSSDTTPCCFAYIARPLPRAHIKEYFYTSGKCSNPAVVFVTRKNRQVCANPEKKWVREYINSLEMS

Chemotaxis IC50 (nM); L1.2 cells expressing hCCR5, 1 nM huRANTES; scFv format: 21 nM
B1: A5 scFv (scFv, part only; not given: linker and tags, part only)
scFv, part: QVQLVQSGAEVKKPGASVKVSCKVSGYALSELSIHWVRQAPGKGLEWMSYIDPEDGEPIYAQKFQGRATMTEDSSTDTAYMEMGSLTSDDTAVYYCAGVTGSTSDAFDLWGRGTLVTVSSSYVLTQDPSVSVAPGQTARITCGGANLWGLGVHWYQQKSGQAPVLVVSDNSDRASGIPERFSGSNSGTTATLTLSRVEVGDEADYYCQVWDSSSDHWVFGGRTKLTVL
